The values that follow come from PMC4609964, “Combination of six enzymes of a marine Novosphingobium converts the stereoisomers of β-O-4 lignin model dimers into the respective monomers” (Scientific Reports, 2015).

In series [1] the test system is COc1ccc(C(O)C(CO)Oc2ccccc2OC)cc1OC. Put plainly: purified protein. The note with it: NAD cofactor.
The target of series [2] is T1, GST3 (Novosphingobium sp. MBES04, UniProt A0A0S6WZT0).
T1 construct: gene MBENS4_2527; N-terminal His6 tag (pRSET A), E. coli BL21(DE3), His-tag resin purified
T1 sequence (A0A0S6WZT0 1-226): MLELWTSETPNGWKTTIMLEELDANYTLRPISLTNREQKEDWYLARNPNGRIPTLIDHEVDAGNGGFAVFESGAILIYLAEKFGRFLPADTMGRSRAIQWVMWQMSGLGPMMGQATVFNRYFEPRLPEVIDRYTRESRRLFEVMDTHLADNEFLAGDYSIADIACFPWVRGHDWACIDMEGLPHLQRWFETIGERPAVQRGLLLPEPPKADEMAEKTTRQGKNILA
Put plainly: conventional GST assay (specific activity). The class given is biochemical. To be noted: glutathione co-substrate.

For series [3], the target named is T1, GST3. Put plainly: chiral HPLC of glutathione removal to GHP. The class given is biochemical. The note with it: glutathione 2.0 mM; 25 °C, 16 h; both conjugates (formed by GST4 and by GST5).
Another series addresses T2, GST6 (Novosphingobium sp. MBES04, UniProt A0A0S6WVQ1).
T2 construct: gene MBENS4_2530; N-terminal His6 tag (pRSET A), E. coli BL21(DE3), His-tag resin purified
T2 sequence (A0A0S6WVQ1 1-283): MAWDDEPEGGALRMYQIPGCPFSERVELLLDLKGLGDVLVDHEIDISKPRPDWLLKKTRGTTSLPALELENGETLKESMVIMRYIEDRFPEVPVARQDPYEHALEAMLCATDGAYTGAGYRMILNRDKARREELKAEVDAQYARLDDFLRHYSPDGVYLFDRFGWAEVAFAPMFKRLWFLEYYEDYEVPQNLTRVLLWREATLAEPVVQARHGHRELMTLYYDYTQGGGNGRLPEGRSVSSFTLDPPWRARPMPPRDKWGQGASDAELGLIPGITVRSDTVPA
Put plainly: chiral HPLC of glutathione removal to GHP. The class given is biochemical. The note with it: […] °C, […] h, both conjugates (formed by GST4 and by GST5).

In series [4] the test system is COc1ccc(C(=O)C(CO)Oc2ccccc2OC)cc1OC. Put plainly: purified protein. The note with it: GSH co-substrate, optimal pH 7−8, 40 °C (determined with MPHPV).
The subject of series [5] is COc1cc(C(=O)C(CO)Oc2ccccc2OC)ccc1O. Put plainly: purified protein. The note with it: GSH co-substrate, optimal pH 7−8, 40 °C, 1:1 β(R)/β(S) mixture (acts on β(R)).
Substrate in series [6]: COc1ccc(C(=O)C(CO)Oc2ccccc2OC)cc1OC
Put plainly: purified protein. Format: biochemical, Novosphingobium sp. MBES04. The note with it: GSH co-substrate, optimal pH 9, 35 °C (determined with MPHPV).

Substrate in series [7]: COc1cc(C(=O)C(CO)Oc2ccccc2OC)ccc1O
Put plainly: purified protein. Format: biochemical, Novosphingobium sp. MBES04. The note with it: GSH co-substrate, optimal pH 9, 35 °C, 1:1 β(R)/β(S) mixture (acts on β(S)).

[8] abbreviates: optimal conditions (pH 9, 15 °C).
Setting [9] is: optimal conditions (pH 9–10, 30 °C).

A word on the Km: it is the substrate concentration at which the rate is half of its maximum. A word on the kcat: it is the maximal rate divided by the concentration of active sites. A word on the kcat/Km: it is the turnover number divided by the Michaelis constant. With SDR3 (Novosphingobium sp. MBES04), in series [1] (setting [8]), the Km amounted to 1500 µM, the kcat was found to be 0.065 s⁻¹ and the kcat/Km was 41.7 M⁻¹ s⁻¹.

Take `O=[N+]([O-])c1ccc(Cl)c([N+](=O)[O-])c1` [CDNB]: the “conventional GST assay (specific activity)” value on GST3 [2] is on record as “the activity of GST3 towards 1-chloro-2,4-dinitrobenzene (CDNB)”.

On to `COc1cc(C(=O)C(CO)SC[C@H](NC(=O)CC[C@H](N)C(=O)O)C(=O)NCC(=O)O)ccc1O` (stereo partly drawn) [GS-GHP], for which the “chiral HPLC of glutathione removal to GHP” value is “the removal of glutathione from both glutathione conjugates of GHP produced by GST4 and GST5” on GST3 [3]; “the removal of glutathione from both glutathione conjugates of GHP produced by GST4 and GST5” on GST6.

In the case of GST5 (Novosphingobium sp. MBES04), in series [4], the Km was 780 µM, the kcat is 0.158 s⁻¹ and the catalytic efficiency (kcat/Km) was found to be 200 M⁻¹ s⁻¹. Besides, in series [5], the Km turned out to be 290 µM, the kcat is 0.0583 s⁻¹ and the kcat/Km is 200 M⁻¹ s⁻¹.

In the case of SDR5 (Novosphingobium sp. MBES04), in series [1] (setting [9]), the Km turned out to be 1100 µM, the kcat amounted to 23.3 s⁻¹ and the kcat/Km came to 21700 M⁻¹ s⁻¹.

B1: GST4 (Novosphingobium sp. MBES04) (protein)
chain: MLTLYSFGPGANSLKPLLALYEKGLEFTPRFVDPTKFEHHEEWFKKINPRGQVPALDHDGNVITESTVICEYLEDAFPDAPRLRPTDPVQIAEMRVWTKWVDEYFCWCVSTIGWERGIGPMARALSDEEFEEKVKRIPIPEQQAKWRSARAGFPKEVLDEEMRKIRVSIDRLEKRLSESTWLAGEDYTLADICNFAIANGMEKGFDDIVNTAATPNLVAWIERINARPACIEMFAKSKSEFAARKPFAKSEEQAQA
notes: N-terminal His6 tag (pRSET A), E. coli BL21(DE3), His-tag resin purified
With B1, in “purified protein [6]”, the Km turned out to be 550 µM, the kcat came out at 0.3 s⁻¹ and the kcat/Km was determined as 533 M⁻¹ s⁻¹. In “purified protein [7]”, the Km came out at 470 µM, the kcat worked out at 0.75 s⁻¹ and the kcat/Km stood at 1580 M⁻¹ s⁻¹.
